T1: IL-18 previously complexed to IL-18BP (Homo sapiens, UniProt Q14116)
T1 sequence (Q14116 37-193): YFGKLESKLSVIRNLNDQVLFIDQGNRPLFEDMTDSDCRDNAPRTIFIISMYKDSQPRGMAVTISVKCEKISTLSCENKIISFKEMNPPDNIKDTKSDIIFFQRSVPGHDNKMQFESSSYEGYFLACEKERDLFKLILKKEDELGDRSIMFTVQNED
T1 sequence (O95998 31-194 partner): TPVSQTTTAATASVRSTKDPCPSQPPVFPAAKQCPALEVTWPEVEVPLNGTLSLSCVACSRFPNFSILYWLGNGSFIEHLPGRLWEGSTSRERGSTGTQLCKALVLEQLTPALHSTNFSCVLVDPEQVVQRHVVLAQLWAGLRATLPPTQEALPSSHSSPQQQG

T2: human interleukin-18 (Homo sapiens, UniProt Q14116)
T2 sequence (Q14116 37-193): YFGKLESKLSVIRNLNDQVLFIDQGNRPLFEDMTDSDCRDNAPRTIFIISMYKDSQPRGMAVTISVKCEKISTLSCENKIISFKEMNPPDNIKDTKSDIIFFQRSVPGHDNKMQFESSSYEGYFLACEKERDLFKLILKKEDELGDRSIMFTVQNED

T3: IL-18 previously complexed to monoclonal antibody (Homo sapiens, UniProt Q14116)
T3 sequence (Q14116 37-193): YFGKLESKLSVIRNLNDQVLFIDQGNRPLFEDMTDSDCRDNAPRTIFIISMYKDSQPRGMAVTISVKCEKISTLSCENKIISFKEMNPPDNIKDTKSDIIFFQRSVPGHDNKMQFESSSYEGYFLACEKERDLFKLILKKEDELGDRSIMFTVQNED


Assays:
[1] = target: T1, IL-18 previously complexed to IL-18BP; test: Luminex screening: monoclonal antibody binding on IL-18 previously complexed to IL-18BP; settings: after third screening step, mRNA sequencing and clone dilution
Excerpt: (§1) Mice were vaccinated aginst human interleukin-18 using a technology allowing immunization with properly folded proteins. Prior to immunization, genetically modified mice were selected for major histocompatibility complexes supposedly sensitive to IL-18 surface area epitopes binding IL-18BP. Following immunization, B cells were isolated from spleen and hybridized following standard hybridoma technology. Hybridoma were sorted onto microplates and then tested for expression of monoclonal anti-IL-18 antibodies targeting IL-18 epitopes included in IL-18BP binding site. The screening was performed in 3 sequential and selective steps: • First step. […] Potential antibodies targeting IL-18 on IL-18BP binding site were rescreened in competition with IL-18BP. For this, monoclonal antibodies were bound to Luminex beads carrying IL-18. The complex was then exposed to biotinylated IL-18BP in order to identify interference to previously identified anti-IL-18 antibodies (see Table 1, Column #2). […] A third screening program was undertaken with Luminex beads linked to IL-18BP and then complexed to interleukin-18, assuring the presentation of properly folded recombinant IL-18 to positive antibody candidates.

human interleukin-18 = target: T2, human interleukin-18; test: Luminex screening: monoclonal antibodies binding on IL-18; settings: IL-18 on Luminex beads
Excerpt: as §1

[2] = target: T3, IL-18 previously complexed to monoclonal antibody; test: Luminex screening: biotinylated IL-18BP binding on IL-18 previously complexed to monoclonal antibody; settings: Column #2
Excerpt: as §1

Monoclonal antibodies binding on IL-18, Fluorescence intensity (human interleukin-18)	IL-18BP binding on IL-18 previously complexed to monoclonal antibody, Fluorescence intensity [2]	Molecule	Binding to IL-18 on the IL-18BP binding site [1]
26 250	1 389	107C6: monoclonal anti-IL-18 antibody; VH SEQ ID NO: 9, VK SEQ ID NO: 10 (antibody, V domains shown, Antibody 107C6 VH sequence; Antibody 107C6 VK sequence) VH: QIQLVQSGPELKKPGETVKLSCRASGYTFTNYGMNWVKQAPGKGLKWMGWINTYSGVPTYADDFKGQFAFSLETSAATAFLQINNLKDEDTATYFCAREGYSTTRSMDYWGQGTSVTVSS VL: DIVMSQSPSSLAVSAGEKVTMSCKSSQSLLDSRTRKNYLVWYQQKPGQSPKLLIYWASTRGSGVPDRFTGSGSGTDFTLTISSVQAEDLAVYYCKQSYNLRTFGGGTKLEIK	confirmed to bind to IL-18 on the IL-18BP binding site
25 126	1 292	108F8: monoclonal anti-IL-18 antibody; VH SEQ ID NO: 11, VK SEQ ID NO: 12 (antibody, V domains shown, Antibody 108F8 VH sequence; Antibody 108F8 VK sequence) VH: QIQLVQSGPDSKKPGETVKLSCRASGYTFTNYGMNWVKQAPGKGLKWMGWINTYSGVPTYADDFKGQFAFSLETSAATAFLQINNLKDEDTATYFCAREGYSTTRSMDYWGQGTSVTVSS VL: DIVMSQSPSSLAVSAGEKVTMSCKSSQSLLDSRTRKNYLVWYQQKPGQSPKLLIYWASTRGSGVPDRFTGSGSGTDFTLTISSVQAEDLAVYYCKQSYNLRTFGGGTKLEIK	confirmed to bind to IL-18 on the IL-18BP binding site
23 839	1 488	132H4: monoclonal anti-IL-18 antibody; VH SEQ ID NO: 23, VK SEQ ID NO: 24 (antibody, V domains shown, Antibody 132H4 VH sequence; Antibody 132H4 VK sequence) VH: EVKLVESGGGLVKPGGSLKLSCAASGFTFSNYAMSWVRQNPAKRLEWVATISSGGANIYYPDSVKGRFIISRDNARNTLYLQMSSLRSEDTAMYYCARGDYFNHFWFAYWGQGTLVTVSA VL: DVLMTQTPLSLPVSLGDQASISCRSSQSIVHSNGNTYLEWYLQKPGQSPKFLIYKVSNRFSGVPDRFSGSGSGTDFTLKINRVEAEDLGIYYCFQGSHVPWTFGGGTKLEIK	confirmed to bind to IL-18 on the IL-18BP binding site
25 848	913	109A6: monoclonal anti-IL-18 antibody; VH SEQ ID NO: 13, VK SEQ ID NO: 14 (antibody, V domains shown, Antibody 109A6 VH sequence; Antibody 109A6 VK sequence) VH: EVQLQQSGAELVKPGASVKLSCTASGFKIKDTYIHWVIQRPAQGLEWIGRIDPANGNTIYGSKFQGKATLTADTSSNTAYIHLSSLTSGDSAVYYCAGYVWFAYWGQGTLVTVSA VL: DVVMTQVPLSLPVSLGDQASISCRSSQRLVHSNGNTYLHWFLQKPGQSPKLLIYTVSNRFSGVPDRFSGSGSGTDFTLKISRVEAEDLGVYFCSQSTLVPWTFGGGTKLEIK	confirmed to bind to IL-18 on the IL-18BP binding site
24 838	1 656	131B4: monoclonal anti-IL-18 antibody; VH SEQ ID NO: 18, VK SEQ ID NO: 19 (antibody, V domains shown, Antibody 131B4 VH sequence; Antibody 131B4 VK sequence) VH: EVQVQQSGAELVKPGASVKLSCTASGFKIKDTYIHWLKQRPEQGLEWIGRIDPANGNTIYGSKFQGKATITADTSSNTAYIQLSSLTSGDTAVYFCAGYVWFAYWGQGTLVTVSA VL: DAVLTQTPLSLPVSLGDQASISCTSSQSLVHSNGNTYLHWYLQKPGQSPKLLIYKVSDRFSGVPDRFSGSGSGTDFTLMITRVEAEDLGVYFCSQSSLVPWTFGGGTKLEVK	confirmed to bind to IL-18 on the IL-18BP binding site

Source: patent US11530263B2, “IL-18 binding protein (IL-18BP) in inflammatory diseases” (AB2 BIO SA, priority 2013, dated 2022)
